Laboratory results: patent US6475744 (GENERAL HOSPITAL CORPORATION A MASSACHUSETTS, dated 2002)

Target: T1, βgalactosidase (UniProt P00722 1-1024 = β-galactosidase, limits assumed)
T1 construct: Construct not described; also called specificity control
Assay: co-immunoprecipitation from co-transfected COS7 cells, anti-HA IP

T1 sequence (P00722 whole entry): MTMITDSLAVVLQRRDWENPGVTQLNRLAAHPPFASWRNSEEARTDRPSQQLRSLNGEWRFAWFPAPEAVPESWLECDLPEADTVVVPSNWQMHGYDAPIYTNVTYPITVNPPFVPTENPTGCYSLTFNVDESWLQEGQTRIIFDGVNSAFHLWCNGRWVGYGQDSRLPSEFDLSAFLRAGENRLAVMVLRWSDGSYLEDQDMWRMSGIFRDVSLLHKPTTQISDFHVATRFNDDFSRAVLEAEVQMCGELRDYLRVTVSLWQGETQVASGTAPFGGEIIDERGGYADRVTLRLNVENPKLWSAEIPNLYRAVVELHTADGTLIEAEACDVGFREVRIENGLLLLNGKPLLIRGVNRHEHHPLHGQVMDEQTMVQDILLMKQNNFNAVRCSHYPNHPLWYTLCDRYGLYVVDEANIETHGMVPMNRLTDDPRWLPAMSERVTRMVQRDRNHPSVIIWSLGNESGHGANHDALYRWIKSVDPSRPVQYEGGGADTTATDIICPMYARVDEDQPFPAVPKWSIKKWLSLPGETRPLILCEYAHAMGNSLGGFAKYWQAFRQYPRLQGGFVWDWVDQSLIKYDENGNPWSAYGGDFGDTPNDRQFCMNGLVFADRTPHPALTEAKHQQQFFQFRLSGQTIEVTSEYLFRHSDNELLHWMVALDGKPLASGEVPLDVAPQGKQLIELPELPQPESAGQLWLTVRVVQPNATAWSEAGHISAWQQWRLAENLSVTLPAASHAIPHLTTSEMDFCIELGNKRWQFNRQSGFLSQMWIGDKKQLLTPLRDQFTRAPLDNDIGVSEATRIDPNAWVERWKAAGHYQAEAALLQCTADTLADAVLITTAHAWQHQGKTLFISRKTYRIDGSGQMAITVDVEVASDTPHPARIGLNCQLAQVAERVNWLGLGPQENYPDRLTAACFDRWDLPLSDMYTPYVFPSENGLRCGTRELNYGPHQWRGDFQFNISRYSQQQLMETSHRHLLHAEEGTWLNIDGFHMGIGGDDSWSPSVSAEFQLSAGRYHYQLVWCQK

B1: mCRY1-HA (other, mouse, UniProt P97784 1-606, looked up, not shown: small tags and cut ends)
chain: MGVNAVHWFRKGLRLHDNPALKECIQGADTIRCVYILDPWFAGSSNVGINRWRFLLQCLEDLDANLRKLNSRLFVIRGQPADVFPRLFKEWNITKLSIEYDSEPFGKERDAAIKKLATEAGVEVIVRISHTLYDLDKIIELNGGQPPLTYKRFQTLVSKMEPLEMPADTITSDVIGKCMTPLSDDHDEKYGVPSLEELGFDTDGLSSAVWPGGETEALTRLERHLERKAWVANFERPRMNANSLLASPTGLSPYLRFGCLSCRLFYFKLTDLYKKVKKNSSPPLSLYGQLLWREFFYTAATNNPRFDKMEGNPICVQIPWDKNPEALAKWAEGRTGFPWIDAIMTQLRQEGWIHHLARHAVACFLTRGDLWISWEEGMKVFEELLLDADWSINAGSWMWLSCSSFFQQFFHCYCPVGFGRRTDPNGDYIRRYLPVLRGFPAKYIYDPWNAPEGIQKVAKCLIGVNYPKPMVNHAEASRLNIERMKQIYQQLSRYRGLGLLASVPSNSNGNGGLMGYAPGENVPSCSSSGNGGLMGYAPGENVPSCSGGNCSQGSGILHYAHGDSQQTHSLKQGRSSAGTGLSSGKRPSQEEDAQSVGPKVQRQSSN
binding result: no binding
